{"source": "patent US20030211466", "tested_on": "HuB (Hel-N2, ELAV-like), Q12926-2", "sequence (Q12926 other isoform, or with tags, fused parts or gaps)": "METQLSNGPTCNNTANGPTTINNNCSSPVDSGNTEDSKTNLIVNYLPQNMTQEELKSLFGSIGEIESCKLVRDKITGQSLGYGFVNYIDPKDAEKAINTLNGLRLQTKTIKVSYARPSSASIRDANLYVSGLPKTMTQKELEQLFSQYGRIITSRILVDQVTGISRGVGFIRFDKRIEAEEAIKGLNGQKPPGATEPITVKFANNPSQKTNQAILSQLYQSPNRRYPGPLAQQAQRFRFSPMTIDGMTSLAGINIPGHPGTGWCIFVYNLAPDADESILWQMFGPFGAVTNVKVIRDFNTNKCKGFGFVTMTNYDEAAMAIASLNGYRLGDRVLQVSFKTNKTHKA", "settings": "increase in HuB RNP on differentiation", "note": "Read-outs that look alike come from different tables or passages of the source.", "data": [{"substance": "CACN (calcium channel beta 3) mRNA", "values": [{"measurement": "binding signal", "setting": "total RNA +1.31", "value": 14.5, "unit": "fold"}]}, {"substance": "CELSR mRNA", "values": [{"measurement": "binding signal", "setting": "total RNA -1.33", "value": 9.41, "unit": "fold"}]}, {"substance": "MBNL mRNA", "values": [{"measurement": "binding signal", "setting": "total RNA +1.42", "value": 8.95, "unit": "fold"}]}]}
